Test results from publication PMC3173232 (The Journal of Biological Chemistry, 2011).

B1: XRCC4(1–140) (domain or fragment)
chain: MERKISRIHLVSEPSITHFLQVSWEKTLESGFVITLTDGHSAWTGTVSESEISQEADDMAMEKGKYVGELRKALLSGAGPADVYTFNFSKESCYFFFEKNLKDVSFRLGSFNLEKVENPAEVIRELICYCLDTIAENQAK
B2: XLF(1–224) (domain or fragment)
chain: MEELEQGLLMQPWAWLQLAENSLLAKVFITKQGYALLVSDLQQVWHEQVDTSVVSQRAKELNKRLTAPPAAFLCHLDNLLRPLLKDAAHPSEATFSCDCVADALILRVRSELSGLPFYWNFHCMLASPSLVSQHLIRPLMGMSLALQCQVRELATLLHMKDLEIQDYQESGATLIRDRLKTEPFEENSFLEQFMIEKLPEACSIGDGKPFVMNLQDLYMAVTTQ

How the values were obtained:
full-length XLF (XLF^FL) = full-length XLF (XLF^FL) (human, UniProt Q9H9Q4 1-299); experiment: SEC
crystal structure = biological target: the molecule itself; experiment: crystal structure

Binder | binding result (full-length XLF (XLF^FL)) | binding result (crystal structure)
B1 | binds | –
B2 | – | binds
